Data set [1] in a line: Release test: release ratio of API from the derivative in phosphate buffer solution pH 7.4 at 36° C., HPLC. Type of data set: physicochemical. The settings on record: phosphate buffer pH 7.4, 36° C.; for Release ratio of API: 5 mg/10 mL; for Release rate: slope of release ratio against time. The method, then: In Examples pertaining to a release test, a release ratio of a pharmaceutical active ingredient (API) from a chondroitin sulfate derivative and a hyaluronic acid derivative, each of which was not fluorescently labeled was evaluated as follows. […] The release ratio was calculated based on the ratio of peak areas of HPLC corresponding to the amount of API in the derivative and the amount of released API using a size-exclusion chromatography column (TSKgel α, manufactured by Tosoh Corporation). Release ratio (%)=peak area of released API/(peak area of API in each derivative+peak area of released API)×100 Also with respect to the hyaluronic acid derivatives of Comparative Examples 2 to 3, evaluation was performed in the same manner as for Examples.

Data set [2] can be described thus: Evaluation using rat 2: concentration of TA in the bladder after administration to the lumen of the bladder, LC/MS/MS. Type of data set: in vivo. The settings on record: bladder homogenate on day 7 after administration; TA dose 0.8 mg/animal into the bladder; hydrochloric acid-pretreated rat; read-out: Concentration of API (TA).
Procedure: In both Example and Comparative Example, the dose of TA was set to 0.8 mg/animal.
The pretreatment was performed in the same manner as in the evaluation 1.
One day after the pretreatment, 0.2 mL of each test substance was transurethrally administered into the bladder using a catheter (PE50) under isoflurane inhalation anesthesia and allowed to stay there for 30 minutes.
Seven days after administering the test substance, the animal was laparotomized under isoflurane inhalation anesthesia and exsanguinated and euthanized by cutting the abdominal aorta, and then, the bladder was collected. The bladder was homogenized in a mixed solution of methanol/buffer solution (10 mmol/L ammonium formate buffer solution (pH 6.0):methanol=3:2 (v/v)), and a measurement sample was prepared so that the tissue concentration was 0.05 g/mL.
Subsequently, the amount of TA in the measurement sample was quantitatively determined by an LC/MS/MS analysis under the following conditions using triamcinolone-6-d1 acetonide-d6 as an internal standard substance.

In the case of “β-alanyl-hydroxyzine-introduced CS [CS-HYD-conjugate]”, the “Release ratio of API” value in data set [1] (elapsed time 0 days) turned out to be 0.00%; in data set [1] (elapsed time 1 day) it was 0.65%; in data set [1] (elapsed time 2 days), 1.48%; in data set [1] (elapsed time 3 days), 2.38%; in data set [1] (elapsed time 4 days), 3.35%; in data set [1] (elapsed time 5 days) it was 4.30%. Moreover, the “Release ratio of API” value in data set [1] (elapsed time 6 days) worked out at 5.24%; in data set [1] (elapsed time 7 days), 6.05%. For the same compound, the Release rate in data set [1] was found to be 0.89%/day.

As for `CC1(C)O[C@@H]2C[C@H]3[C@@H]4CCC5=CC(=O)C=C[C@]5(C)[C@@]4(F)[C@@H](O)C[C@]3(C)[C@]2(C(=O)CO)O1` [TA, triamcinolone acetonide], the concentration at 7 days in data set [2] stood at 4.09 ng/g.

With “2-Aminoethyl-Dehydrocholate-Introduced CS [CS-DEH-conjugate]”, the “Release ratio of API” value in data set [1] (elapsed time 0 days) was determined as 0.45%; in data set [1] (elapsed time 1 day), 0.53%; in data set [1] (elapsed time 2 days), 0.52%; in data set [1] (elapsed time 3 days), 0.66%; in data set [1] (elapsed time 4 days), 0.65%; in data set [1] (elapsed time 5 days) it was 0.78%. The “Release ratio of API” value in data set [1] (elapsed time 6 days) was found to be 1.29%; in data set [1] (elapsed time 7 days) it was 1.42%. The Release rate in data set [1] turned out to be 0.14%/day.

In the case of “2-Aminoethyl-Diclofenac-Introduced CS [CS-DIC-conjugate]”, the “Release ratio of API” value in data set [1] (elapsed time 0 days) is on record as 0.00%; in data set [1] (elapsed time 1 day), 0.95%; in data set [1] (elapsed time 2 days), 2.06%; in data set [1] (elapsed time 3 days), 3.13%; in data set [1] (elapsed time 4 days), 4.11%; in data set [1] (elapsed time 5 days) it was 5.40%. For the same compound, the figures for the “Release ratio of API” value in data set [1] (elapsed time 6 days) and in data set [1] (elapsed time 7 days) were 6.55% and 7.62%, respectively. Also, the Release rate in data set [1] was 1.10%/day.

Take “2-Aminoethyl-Probenecid-Introduced CS [CS-PRO-conjugate]”: the “Release ratio of API” value in data set [1] (elapsed time 0 days) is 0.31%; in data set [1] (elapsed time 1 day) it was 0.83%; in data set [1] (elapsed time 2 days) it was 1.43%; in data set [1] (elapsed time 3 days) it was 2.13%; in data set [1] (elapsed time 4 days), 2.91%; in data set [1] (elapsed time 5 days) it was 3.63%. The “Release ratio of API” value in data set [1] (elapsed time 6 days) was found to be 4.56%; in data set [1] (elapsed time 7 days), 5.29%. Besides, the Release rate in data set [1] was 0.72%/day.

On to “3-Aminopropyl Cinnamate-Introduced HA [HA-CIN-conjugate, reference compound]”, for which the “Release ratio of API” value in data set [1] (elapsed time 0 days), in data set [1] (elapsed time 1 day), in data set [1] (elapsed time 2 days), in data set [1] (elapsed time 3 days), in data set [1] (elapsed time 4 days) and in data set [1] (elapsed time 5 days) was 0.00% in each case. The “Release ratio of API” value in data set [1] (elapsed time 6 days) and in data set [1] (elapsed time 7 days) was 0.00% throughout. In addition, the “Release of API (result in words)” value in data set [1] (1 week) is “release of cinnamic acid was not observed”. Moreover, the Release rate in data set [1] was determined as 0.00%/day.

The values above are taken from US20220370630A1, “TRANSMUCOSAL DELIVERY SYSTEM FOR PHARMACEUTICAL ACTIVE INGREDIENT TO SUBMUCOSAL TISSUE OF BLADDER” (SEIKAGAKU CORPORATION, priority 2019, published 2022).
